Experiment [1] addresses T1, CD6 (human, UniProt P30203 18-668, tyrosine phosphorylation of the cytoplasmic domain (sites not given)).
T1 construct: whole, on cells; Endogenous CD6 of human PBMCs; also called CD6 receptor; hCD6
T1 sequence (looked up): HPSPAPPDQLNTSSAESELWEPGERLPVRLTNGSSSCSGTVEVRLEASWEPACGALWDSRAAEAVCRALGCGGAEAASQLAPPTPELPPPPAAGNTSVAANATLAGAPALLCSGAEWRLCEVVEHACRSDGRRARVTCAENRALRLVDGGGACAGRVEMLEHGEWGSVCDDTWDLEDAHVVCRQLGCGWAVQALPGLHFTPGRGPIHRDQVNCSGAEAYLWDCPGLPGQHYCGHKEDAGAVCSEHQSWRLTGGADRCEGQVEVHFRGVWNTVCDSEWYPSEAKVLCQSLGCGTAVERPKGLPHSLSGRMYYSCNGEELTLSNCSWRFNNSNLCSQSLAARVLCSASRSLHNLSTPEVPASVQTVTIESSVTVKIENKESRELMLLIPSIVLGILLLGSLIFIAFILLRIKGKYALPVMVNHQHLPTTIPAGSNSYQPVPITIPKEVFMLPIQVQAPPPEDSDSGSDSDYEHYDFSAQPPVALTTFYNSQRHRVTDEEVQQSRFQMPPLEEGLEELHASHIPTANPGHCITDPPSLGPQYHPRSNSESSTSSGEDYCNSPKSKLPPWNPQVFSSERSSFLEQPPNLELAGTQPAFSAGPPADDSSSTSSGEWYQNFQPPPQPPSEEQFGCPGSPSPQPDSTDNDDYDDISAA
The experiment is described as follows: cell-based or functional assay.

For experiment [2], the target named is T1, CD6. The experiment is described as follows: co-immunoprecipitation with CD6 (pulled down by itolizumab) and immunoblot; PBMCs on plate-bound ALCAM against no ALCAM. (In general: A western blot detects proteins with antibodies after separation by electrophoresis.)
In experiment [3] the target is T1, CD6. The experiment in a line: immunoprecipitation of CD6 from human PBMC lysates and CD6 immunoblot. The method, then: In these experiments, PBMC were treated with 0.5 ng/ml anti-CD3 antibody (OKT 3) for 24 h in presence or absence of itolizumab or Iso Ab antibody. Cells were harvested and CD6 was immune-precipitated with itolizumab or Iso Ab. 10% total lysate served as input control samples. Both immune precipitated and input control samples were immune blotted and analyzed.

In the case of “Fc-ALCAM (from UniProt Q13740 28-527) (Fc fusion)”, in the experiment with CD6 [1], the CD6 tyrosine phosphorylation was greater than 2.5 fold; the phosphorylation of CD6 associated SHP1 and SHP2 was in the range of 3 to 4 fold.
Molecule SLP-76 (from UniProt Q13094 1-533) displayed a fold increase of association with CD6 with CD6 [2] of 3 to 4 fold.
On the same count and under the same terms, to “Zap70 (from UniProt P43403 1-619) (enzyme)” belongs 3 to 4 fold.

B1: itolizumab (antibody, human IgG1, kappa, V domains shown)
VH: EVQLVESGGGLVKPGGSLKLSCAASGFKFSRYAMSWVRQAPGKRLEWVATISSGGSYIYYPDSVKGRFTISRDNVKNTLYLQMSSLRSEDTAMYYCARRDYDLDYFDSWGQGTLVTVSS
VL: DIQMTQSPSSLSASVGDRVTITCKASRDIRSYLTWYQQKPGKAPKTLIYYATSLADGVPSRFSGSGSGQDYSLTISSLESDDTATYYCLQHGESPFTLGSGTKLEIKR
notes: Humanized IgG1, produced at Biocon Ltd, used in soluble form; also called T1h; humanized IgG1 isotype anti-CD6 monoclonal antibody
Regarding B1, the binding result with CD6 [3] is reported as “binds”.

The record behind these values is patent US20240101700A1 (BIOCON, published 2024).
